The source of these data is the supplement of paper PMC11780869.

This series concerns Bacillus subtilis. The series is described as follows: cleaved RNA product abundance (RNA/gDNA barcode ratio) relative to median wild-type variant (ratio to wild type); higher = more accumulation of the downstream cleavage product. Particulars: cleavage site: cggR-gapA (positions -7 to +36 mutated). The method in brief:
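Cleaved product abundance for each construct is its RNA-to-gDNA barcode ratio, scaled to the median construct carrying the unmutated site. Cleaved RNA was isolated on a gel, reverse transcribed and barcode-sequenced, with genomic DNA barcodes sequenced alongside and UMIs collapsed. The reporters were truncated aprE or tetM mRNAs with barcoded, mutagenized RNase Y cleavage-site windows integrated into the B. subtilis chromosome, and cultures grew in LB at 37°C from OD600 0.0003 to 0.3.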

[1] abbreviates: experiment (reporter, strain, medium): exp 2b: truncated aprE reporter, strain BJT200.
Where [2] appears, read: experiment (reporter, strain, medium): exp 4a: truncated aprE reporter, strain BJT201 with 2% xylose (RNase J1 expressed).
Where [3] appears, read: experiment (reporter, strain, medium): exp 6: tetM reporter, strain 168.

For the sequence “ACAGACGAAGGAGCCGCAAAGAAGTTATTAAGGGATGAATAAACCCTCAATATAGATATCTCTCACTTATTTAAA”, the “cleaved RNA product abundance” value is, setting by setting: under setting [1], 0.365; under setting [2], 0.342.
As for “ACAGACGAAGGAGCCGCAAAGAAGTTATTAAGGGATGAATAAACCCTCAATATATATATCTCTCACTTATTTAAA”, the “cleaved RNA product abundance” value turned out to be 0.488 under setting [1] and 0.477 under setting [2].
With “ACAGACGAAGGAGCCGCAAAGAAGTTATTAAGGGATGAATAAACCCTCAATGTAAATATCTCTCACTTATTTAAA”, the “cleaved RNA product abundance” value under setting [2] turned out to be 0.19.
As for “ACAGACGAAGGAGCCGCAAAGAAGTTATTAAGGGATGAATAAACCCTCACTATAAATATCTCTCACTTATTTAAA”, the “cleaved RNA product abundance” value under setting [2] was 0.173.
Turning to “ACAGACGAAGGAGCCGCAAAGAAGTTATTAAGGGATGAATAAACCCTCAGTATAAATATCTCTCACTTATTTAAA”, the “cleaved RNA product abundance” value under setting [2] was 0.211.
As for “ACAGACGAAGGAGCCGCAAAGAAGTTATTAAGGGATGAATAAACCCTCATTATAAATATCTCTCACTTATTTAAA”, the “cleaved RNA product abundance” value came to 0.13 under setting [1] and 0.19 under setting [2].
For “ACAGACGAAGGAGCCGCAAAGAAGTTATTAAGGGATGAATAAACCCTCCATATAAATATCTCTCACTTATTTAAA”, the “cleaved RNA product abundance” value under setting [2] turned out to be 0.162.
As to “ACAGACGAAGGAGCCGCAAAGAAGTTATTAAGGGATGAATAAACCCTCTATATAAATATCTCTCACTTATTTAAA”, under setting [1], the “cleaved RNA product abundance” value was determined as 0.151.
Consider “ACAGACGAAGGAGCCGCAAAGAAGTTATTAAGGGATGAATAAACCCTGAATATAAATATCTCTCACTTATTTAAA”, for which the “cleaved RNA product abundance” value worked out at 0.303 under setting [1] and 0.388 under setting [2].
With “ACAGACGAAGGAGCCGCAAAGAAGTTATTAAGGGATGAATAAACCCTTAATATAAATATCTCTCACTTATTTAAA”, the “cleaved RNA product abundance” value under setting [2] stood at 0.507.
Regarding “ACAGACGAAGGAGCCGCAAAGAAGTTATTAAGGGATGAATAAACCTTCAATATAAATATCTCTCACTTATTTAAA”, the “cleaved RNA product abundance” value runs as follows: under setting [1], 0.096; under setting [2], 0.267.
Regarding “ACAGACGAAGGAGCCGCAAAGAAGTTATTAAGGGATGAATAAACTCTCAATATAAATATCTCTCACTTATTTAAA”, the “cleaved RNA product abundance” value under setting [2] was found to be 0.14.
As to “ACAGACGAAGGAGCCGCAAAGAAGTTATTAAGGGATGAATAAATCCCTCAATATAAATATCTCTCACTTATTTAA”, under setting [2], the “cleaved RNA product abundance” value turned out to be 0.537.
On the same count and under the same terms, to “ACAGACGAAGGAGCCGCAAAGAAGTTATTAAGGGATGAATAAATCCTCAATATAAATATCTCTCACTTATTTAAA” belongs 0.306; to “ACAGACGAAGGAGCCGCAAAGAAGTTATTAAGGGATGAATAACACCACAATATAAATATCTCTCACTTATTTAAA”, 0.0909.
With “ACAGACGAAGGAGCCGCAAAGAAGTTATTAAGGGATGAATAACACCTCAATATAAATATCTCTCACTTATTTAAA”, the “cleaved RNA product abundance” value under setting [2] worked out at 0.164.
As for “ACAGACGAAGGAGCCGCAAAGAAGTTATTAAGGGATGAATAACCACTCAATATAAATATCTCTCACTTATTTAAA”, the “cleaved RNA product abundance” value runs as follows: under setting [1], 0.0866; under setting [2], 0.17.
Take “ACAGACGAAGGAGCCGCAAAGAAGTTATTAAGGGATGAATAACCCCTAAATATAAATATCTCTCACTTATTTAAA”: under setting [2], the “cleaved RNA product abundance” value worked out at 0.542.
With “ACAGACGAAGGAGCCGCAAAGAAGTTATTAAGGGATGAATAACCCCTCAAAATAAATATCTCTCACTTATTTAAA”, the “cleaved RNA product abundance” value under setting [1] turned out to be 0.208.
With “ACAGACGAAGGAGCCGCAAAGAAGTTATTAAGGGATGAATAACCCCTCAATATAAATATCTCTCACTTATTTAAA”, the “cleaved RNA product abundance” value under setting [1] was determined as 0.56, the “cleaved RNA product abundance” value under setting [2] is 0.609 and the “cleaved RNA product abundance” value under setting [3] amounted to 0.408.
Regarding “ACAGACGAAGGAGCCGCAAAGAAGTTATTAAGGGATGAATAACCCCTCAATATACATATCTCTCACTTATTTAAA”, the “cleaved RNA product abundance” value under setting [2] was found to be 0.37.
Consider “ACAGACGAAGGAGCCGCAAAGAAGTTATTAAGGGATGAATAACCCCTCAATATATATATCTCTCACTTATTTAAA”, for which, under setting [2], the “cleaved RNA product abundance” value worked out at 0.739.
Regarding “ACAGACGAAGGAGCCGCAAAGAAGTTATTAAGGGATGAATAACCCCTCAATCTAAATATCTCTCACTTATTTAAA”, the “cleaved RNA product abundance” value under setting [2] amounted to 0.0932.
On to “ACAGACGAAGGAGCCGCAAAGAAGTTATTAAGGGATGAATAACCCCTCCATATAAATATCTCTCACTTATTTAAA”, for which the “cleaved RNA product abundance” value under setting [2] was found to be 0.178.
As for “ACAGACGAAGGAGCCGCAAAGAAGTTATTAAGGGATGAATAACCCCTCTATATAAATATCTCTCACTTATTTAAA”, the “cleaved RNA product abundance” value under setting [2] stood at 0.229.
As for “ACAGACGAAGGAGCCGCAAAGAAGTTATTAAGGGATGAATAACCCCTTAATATAAATATCTCTCACTTATTTAAA”, the “cleaved RNA product abundance” value by setting is: under setting [1], 1.34; under setting [2], 0.505.
As to “ACAGACGAAGGAGCCGCAAAGAAGTTATTAAGGGATGAATAACCCTTCAATATAAATATCTCTCACTTATTTAAA”, under setting [2], the “cleaved RNA product abundance” value came out at 0.346.
Same read-out and setting: the figure for “ACAGACGAAGGAGCCGCAAAGAAGTTATTAAGGGATGAATAACCTCTCAATATAAATATCTCTCACTTATTTAAA” is 0.151.
As for “ACAGACGAAGGAGCCGCAAAGAAGTTATTAAGGGATGAATAACTCCTCAATATAAATATCTCTCACTTATTTAAA”, the “cleaved RNA product abundance” value runs as follows: under setting [1], 0.14; under setting [2], 0.149.
As to “ACAGACGAAGGAGCCGCAAAGAAGTTATTAAGGGATGAATAAGCCCTAAATATAAATATCTCTCACTTATTTAAA”, the “cleaved RNA product abundance” value came out at 0.342 under setting [1] and 0.528 under setting [2].
Regarding “ACAGACGAAGGAGCCGCAAAGAAGTTATTAAGGGATGAATAAGCCCTCAAAATAAATATCTCTCACTTATTTAAA”, under setting [2], the “cleaved RNA product abundance” value was 0.261.
Regarding “ACAGACGAAGGAGCCGCAAAGAAGTTATTAAGGGATGAATAAGCCCTCAAGATAAATATCTCTCACTTATTTAAA”, the “cleaved RNA product abundance” value under setting [2] was 0.176.
Same read-out and setting: to “ACAGACGAAGGAGCCGCAAAGAAGTTATTAAGGGATGAATAAGCCCTCAATATAAATAGCTCTCACTTATTTAAA” belongs 0.406.
With “ACAGACGAAGGAGCCGCAAAGAAGTTATTAAGGGATGAATAAGCCCTCAATATAAATATCTCTCACTTATTTAAA”, the “cleaved RNA product abundance” value by setting is: under setting [1], 0.683; under setting [2], 0.634; under setting [3], 0.775.
Regarding “ACAGACGAAGGAGCCGCAAAGAAGTTATTAAGGGATGAATAAGCCTTCAATATAAATATCTCTCACTTATTTAAA”, the “cleaved RNA product abundance” value under setting [2] came out at 0.171.
For “ACAGACGAAGGAGCCGCAAAGAAGTTATTAAGGGATGAATAATAACTCAATATAAATATCTCTCACTTATTTAAA”, the “cleaved RNA product abundance” value under setting [1] was 0.0902 and the “cleaved RNA product abundance” value under setting [2] is 0.128.
As to “ACAGACGAAGGAGCCGCAAAGAAGTTATTAAGGGATGAATAATACATCAATATAAATATCTCTCACTTATTTAAA”, the “cleaved RNA product abundance” value under setting [2] was 0.0848.
Regarding “ACAGACGAAGGAGCCGCAAAGAAGTTATTAAGGGATGAATAATACCACAATATAAATATCTCTCACTTATTTAAA”, the “cleaved RNA product abundance” value under setting [1] stood at 0.0894 and the “cleaved RNA product abundance” value under setting [2] worked out at 0.0911.
For “ACAGACGAAGGAGCCGCAAAGAAGTTATTAAGGGATGAATAATACCCCAATATAAATATCTCTCACTTATTTAAA”, under setting [2], the “cleaved RNA product abundance” value amounted to 0.149.
On to “ACAGACGAAGGAGCCGCAAAGAAGTTATTAAGGGATGAATAATACCTAAATATAAATATCTCTCACTTATTTAAA”, for which the “cleaved RNA product abundance” value under setting [1] is 0.12 and the “cleaved RNA product abundance” value under setting [2] was 0.132.
For the sequence “ACAGACGAAGGAGCCGCAAAGAAGTTATTAAGGGATGAATAATACCTCAAAATAAATATCTCTCACTTATTTAAA”, the “cleaved RNA product abundance” value under setting [2] was 0.155.
On to “ACAGACGAAGGAGCCGCAAAGAAGTTATTAAGGGATGAATAATACCTCAAGATAAATATCTCTCACTTATTTAAA”, for which the “cleaved RNA product abundance” value runs as follows: under setting [1], 0.102; under setting [2], 0.124.
Turning to “ACAGACGAAGGAGCCGCAAAGAAGTTATTAAGGGATGAATAATACCTCAATACAAATATCTCTCACTTATTTAAA”, the “cleaved RNA product abundance” value under setting [2] worked out at 0.0658.
On to “ACAGACGAAGGAGCCGCAAAGAAGTTATTAAGGGATGAATAATACCTCAATATAAAAATCTCTCACTTATTTAAA”, for which the “cleaved RNA product abundance” value is 0.144 under setting [1] and 0.179 under setting [2].
As for “ACAGACGAAGGAGCCGCAAAGAAGTTATTAAGGGATGAATAATACCTCAATATAAACATCTCTCACTTATTTAAA”, under setting [2], the “cleaved RNA product abundance” value is 0.108.
Regarding “ACAGACGAAGGAGCCGCAAAGAAGTTATTAAGGGATGAATAATACCTCAATATAAATAACTCTCACTTATTTAAA”, the “cleaved RNA product abundance” value reads like this: under setting [1], 0.144; under setting [2], 0.0774.
Regarding “ACAGACGAAGGAGCCGCAAAGAAGTTATTAAGGGATGAATAATACCTCAATATAAATACCTCTCACTTATTTAAA”, the “cleaved RNA product abundance” value under setting [2] was found to be 0.162.
For “ACAGACGAAGGAGCCGCAAAGAAGTTATTAAGGGATGAATAATACCTCAATATAAATATCTCTCACTTATTAAAG”, under setting [2], the “cleaved RNA product abundance” value was 0.148.
As to “ACAGACGAAGGAGCCGCAAAGAAGTTATTAAGGGATGAATAATACCTCAATATAAATATCTCTCACTTATTTAAA”, the “cleaved RNA product abundance” value runs as follows: under setting [1], 0.117; under setting [2], 0.152; under setting [3], 0.151.
With “ACAGACGAAGGAGCCGCAAAGAAGTTATTAAGGGATGAATAATACCTCAATATAAATTTCTCTCACTTATTTAAA”, the “cleaved RNA product abundance” value under setting [2] was determined as 0.15.
The same measure, in the same setting: the figure for “ACAGACGAAGGAGCCGCAAAGAAGTTATTAAGGGATGAATAATACCTCAATATAATTATCTCTCACTTATTTAAA” is 0.165; for “ACAGACGAAGGAGCCGCAAAGAAGTTATTAAGGGATGAATAATACCTCAATATACATATCTCTCACTTATTTAAA” it is 0.123; for “ACAGACGAAGGAGCCGCAAAGAAGTTATTAAGGGATGAATAATACCTCAATATAGATATCTCTCACTTATTTAAA” it is 0.147.
